Tested on: HK-2 cells
Test: Sepsis-associated AKI model: cell-free hemoglobin-treated HK-2 cells, MTT, LDH, CC3, Ki-67, MDA
Assay type: cell-based
Method: Immortalized human cortical and proximal tubular epithelial (HK-2) cells were cultured in DMEM-F-12 with FBS [10% (wt/vol)] (Life Technologies, Carlsbad, CA), Insulin-Transferrin-Selenium (ITS) (Corning, Corning, NY), hydrocortisone (0.1 μM), and 1% Penicillin/Streptomycin. […] To induce the sepsis-associated AKI model, cells at confluence were exposed to 1 mg/ml purified cell-free hemoglobin (CFH) for 48 h. For all experiments, we used CFH purified from normal human blood by high pressure liquid chromatography (Pishchany, G., et al. J Vis Exp. 2013 Feb. 7 (72): 50072). After 48 h, the control or treated cells were harvested for immunostaining or assays. In both models, culture media was replaced after 48 h. For iNP-EV treatment, 10 μg of EVs was added to cells for the next 24 h.
The organoids were washed with PBS and then treated with MTT (3-(4,5-dimethylthiazol-2-yl)-2,5-diphenyltetrazolium bromide) reagent (Sigma-Aldrich) (1 mg/ml) for at least 60 min, leading to the purple formazan formation in living cells. The reagents were then removed and isopropanol was added to dissolve the insoluble formazan. The absorbance of the colored solution was measured using a microplate reader at 560 nm and 690 nm. Background absorbance at 690 nm was subtracted from absorbance at 560 nm and the O.D. values were plotted to measure cell viability.
LDH release from the cells was evaluated using CyQUANT™ LDH Cytotoxicity Assay Kit. Briefly, cell culture medium was collected for other purposes at 48 h after the treatment. The cells were treated with 10% Triton X-100 and incubated for 15 min before to obtain the maximum LDH release from the sample. Cell culture media was collected and 50 μl of each sample was transferred into a 96-well opaque-walled, non-transparent assay plate. The LDH detection reagent was prepared by combining the LDH detection enzyme mix and reductase substrate. Then 50 μl of detection reagent was added to each well. The wells were incubated for 60 min at room temperature. […] was recorded on a plate reader at 490 nm and the corresponding O.D. was plotted to quantify cell death.

[1] = HK-2, 1 mg/ml CFH 48 h vs control

CFH: cell-free hemoglobin purified from normal human blood by high pressure liquid chromatography; induces sepsis-associated AKI model
concentration of Malondialdehyde (MDA), lipid peroxidation (HK-2, 1 mg/ml CFH 48 h, without CFH ~3.5 μM, p<0.0001): 22.5 µM
cleaved caspase-3 staining [1]: increased
proliferation by Ki-67 staining [1]: not different between the groups
LDH release (HK-2, 1 mg/ml CFH 48 h vs control, p<0.005): higher LDH release
viability (MTT assay) (HK-2, 1 mg/ml CFH 48 h vs control, p=0.0001): substantial decline in viability

Reference: patent US20250221941A1, “NEPHRON PROGENITOR EXOSOMES” (VANDERBILT UNIVERSITY, priority 2021, published 2025)
